18 molecules from US20030068675, “Position dependent recognition of GNN nucleotide triplets by zinc fingers” (published 2003) can be followed below.

Common to all, as to test: EMSA
Holding throughout (details): tags: MBP fusion
For orientation: In EMSA bound probe runs differently from free probe, usually more slowly.

One series has as its target ZFP SBS#779 (synthetic). The essentials: (§1)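 Purified ZFP was titrated against labeled double-stranded target (1 nM or lower, at least 10-fold below expected Kd) carrying the natural binding site with flanks. Binding buffer was 10 mM Tris pH 7.5, 100 mM KCl, 1 mM MgCl2, 0.1 mM ZnCl2, 5 mM DTT, 10% glycerol, 0.02% BSA, with equilibration for at least 45 min. Bound and free target were separated on a 10% polyacrylamide gel.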

The next series deals with ZFP SBS#780 (synthetic). In a few lines: as §1
ZFP SBS#780 (synthetic), sequence (chain, as listed by the source): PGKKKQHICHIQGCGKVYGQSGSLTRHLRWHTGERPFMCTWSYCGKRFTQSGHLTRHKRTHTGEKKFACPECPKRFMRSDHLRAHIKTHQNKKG
For the next series, the target named is T1, ZFP SBS#256 (synthetic).
T1 chain: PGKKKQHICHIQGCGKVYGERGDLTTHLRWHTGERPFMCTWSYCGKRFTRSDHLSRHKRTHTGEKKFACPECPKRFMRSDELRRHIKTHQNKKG
In a few lines: as §1

Another series has as its target T2, ZFP SBS#912 (synthetic).
T2 chain: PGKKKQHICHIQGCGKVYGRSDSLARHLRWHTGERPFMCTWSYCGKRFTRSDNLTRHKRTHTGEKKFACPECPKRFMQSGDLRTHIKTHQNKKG
The essentials: as §1

A further series addresses T3, ZFP SBS#431 (synthetic).
T3 chain: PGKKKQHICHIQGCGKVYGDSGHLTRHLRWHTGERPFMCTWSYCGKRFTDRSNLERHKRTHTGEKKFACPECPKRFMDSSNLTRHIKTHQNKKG
The essentials:
as §1

In the next series the target is ZFP SBS#923 (synthetic). In a few lines:
as §1

The next series has as its target T4, ZFP SBS#922 (synthetic).
T4 chain: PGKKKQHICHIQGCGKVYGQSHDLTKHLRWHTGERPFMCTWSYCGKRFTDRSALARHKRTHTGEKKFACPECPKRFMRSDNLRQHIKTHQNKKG
In a few lines: as §1

In another series the target is ZFP SBS#921 (synthetic). The essentials:
as §1

Another series concerns the target T5, ZFP SBS#908 (synthetic).
T5 chain: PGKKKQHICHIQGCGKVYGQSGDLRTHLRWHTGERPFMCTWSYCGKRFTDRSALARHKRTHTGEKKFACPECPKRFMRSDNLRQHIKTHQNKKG
The essentials:
as §1

The target of the next series is ZFP SBS#904 (synthetic). The essentials:
as §1

For the next series, the target named is ZFP SBS#920 (synthetic). In a few lines: as §1
ZFP SBS#920 (synthetic), sequence (chain, as listed by the source): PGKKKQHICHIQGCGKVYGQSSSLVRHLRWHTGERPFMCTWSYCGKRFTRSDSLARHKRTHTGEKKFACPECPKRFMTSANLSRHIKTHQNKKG
A further series addresses ZFP SBS#916 (synthetic). In a few lines:
as §1

A further series concerns the target T6, ZFP SBS#748 (synthetic).
T6 chain: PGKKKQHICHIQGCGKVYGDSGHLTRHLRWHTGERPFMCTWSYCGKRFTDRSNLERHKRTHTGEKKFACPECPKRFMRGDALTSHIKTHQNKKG
The essentials:
as §1

Another series addresses T7, ZFP SBS#760 (synthetic).
T7 chain: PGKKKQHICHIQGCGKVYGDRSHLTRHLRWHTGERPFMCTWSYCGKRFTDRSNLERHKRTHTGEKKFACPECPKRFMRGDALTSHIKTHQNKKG
In a few lines: as §1

The target in the next series is T8, ZFP SBS#749 (synthetic).
T8 chain: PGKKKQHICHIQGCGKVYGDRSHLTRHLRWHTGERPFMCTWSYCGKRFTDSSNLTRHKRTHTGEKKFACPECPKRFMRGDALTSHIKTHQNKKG
In a few lines: as §1

The target of the next series is T9, ZFP SBS#759 (synthetic).
T9 chain: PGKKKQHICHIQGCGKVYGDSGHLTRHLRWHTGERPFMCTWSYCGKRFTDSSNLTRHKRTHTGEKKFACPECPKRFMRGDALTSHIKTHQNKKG
In a few lines:
as §1

For a further series, the target named is T10, ZFP SBS#761 (synthetic).
T10 chain: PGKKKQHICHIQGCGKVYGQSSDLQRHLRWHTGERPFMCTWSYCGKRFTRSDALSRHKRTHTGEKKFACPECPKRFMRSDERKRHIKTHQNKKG
In a few lines: as §1

For another series, the target named is ZFP SBS#727 (synthetic, UniProt P08047). The essentials:
as §1

The next series addresses T11, ZFP SBS#735 (synthetic).
T11 chain: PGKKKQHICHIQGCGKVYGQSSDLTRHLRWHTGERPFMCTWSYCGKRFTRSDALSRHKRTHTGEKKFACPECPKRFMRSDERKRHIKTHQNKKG
The essentials: as §1

Another series deals with ZFP SBS#762 (synthetic, UniProt P08047). In a few lines:
as §1

The next series has as its target ZFP SBS#909 (synthetic). The essentials:
as §1

The next series concerns the target T12, ZFP SBS#787 (synthetic).
T12 chain: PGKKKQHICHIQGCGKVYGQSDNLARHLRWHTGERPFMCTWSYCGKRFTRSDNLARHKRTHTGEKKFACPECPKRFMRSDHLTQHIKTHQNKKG
In a few lines:
as §1

The target in a further series is T13, ZFP SBS#776 (synthetic).
T13 chain: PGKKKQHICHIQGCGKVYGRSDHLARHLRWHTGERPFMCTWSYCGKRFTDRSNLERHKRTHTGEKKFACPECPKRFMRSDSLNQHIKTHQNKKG
In a few lines: as §1

In a further series the target is T14, ZFP SBS#777 (synthetic).
T14 chain: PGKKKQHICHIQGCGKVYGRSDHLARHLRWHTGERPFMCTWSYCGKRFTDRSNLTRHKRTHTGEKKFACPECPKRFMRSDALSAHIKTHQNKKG
The essentials:
as §1

For the next series, the target named is T15, ZFP SBS#905 (synthetic).
T15 chain: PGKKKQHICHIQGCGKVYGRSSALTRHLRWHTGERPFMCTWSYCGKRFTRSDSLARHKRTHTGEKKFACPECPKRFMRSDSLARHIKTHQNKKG
In a few lines: as §1

In the next series the target is T16, ZFP SBS#926 (synthetic).
T16 chain: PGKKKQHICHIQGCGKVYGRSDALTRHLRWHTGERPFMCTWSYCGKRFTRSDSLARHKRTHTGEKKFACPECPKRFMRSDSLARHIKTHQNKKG
In a few lines: as §1

The next series concerns the target ZFP SBS#914 (synthetic). The essentials: as §1
The target in a further series is ZFP SBS#915 (synthetic). The essentials: as §1
ZFP SBS#915 (synthetic), sequence (chain, as listed by the source): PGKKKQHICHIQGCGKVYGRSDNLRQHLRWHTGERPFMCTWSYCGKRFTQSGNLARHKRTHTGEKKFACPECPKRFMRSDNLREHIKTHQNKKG
The target in the next series is T17, ZFP SBS#827 (synthetic).
T17 chain: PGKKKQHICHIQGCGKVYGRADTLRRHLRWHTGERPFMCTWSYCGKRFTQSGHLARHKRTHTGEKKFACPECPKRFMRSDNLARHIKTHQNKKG
The essentials: as §1

The target in the next series is T18, ZFP SBS#826 (synthetic).
T18 chain: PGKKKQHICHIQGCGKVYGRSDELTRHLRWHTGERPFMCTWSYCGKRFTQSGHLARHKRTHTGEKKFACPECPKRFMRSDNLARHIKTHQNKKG
In a few lines: as §1

A further series deals with ZFP SBS#750 (synthetic). The essentials:
as §1

The target in the next series is ZFP SBS#781 (synthetic, UniProt P08047). In a few lines: as §1
For a further series, the target named is ZFP SBS#783 (synthetic). The essentials:
as §1

A further series deals with ZFP SBS#786 (synthetic). In a few lines:
as §1

The next series deals with ZFP SBS#785 (synthetic). The essentials: as §1
ZFP SBS#785 (synthetic), sequence (chain, as listed by the source): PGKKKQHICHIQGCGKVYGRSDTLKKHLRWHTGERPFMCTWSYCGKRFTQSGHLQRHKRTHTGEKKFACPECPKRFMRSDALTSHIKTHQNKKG

ZFP SBS#916 (synthetic), sequence (chain, as listed by the source): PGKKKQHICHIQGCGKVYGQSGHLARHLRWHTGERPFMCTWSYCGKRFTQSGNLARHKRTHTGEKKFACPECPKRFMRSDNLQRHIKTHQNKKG
ZFP SBS#914 (synthetic), sequence (chain, as listed by the source): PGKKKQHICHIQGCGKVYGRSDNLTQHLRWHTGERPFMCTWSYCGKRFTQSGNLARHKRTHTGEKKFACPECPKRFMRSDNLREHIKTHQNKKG
ZFP SBS#762, sequence (P08047 other isoform, or with tags, fused parts or gaps): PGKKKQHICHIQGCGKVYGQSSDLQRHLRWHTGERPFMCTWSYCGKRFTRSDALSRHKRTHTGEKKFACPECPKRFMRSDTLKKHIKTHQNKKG
ZFP SBS#921 (synthetic), sequence (chain, as listed by the source): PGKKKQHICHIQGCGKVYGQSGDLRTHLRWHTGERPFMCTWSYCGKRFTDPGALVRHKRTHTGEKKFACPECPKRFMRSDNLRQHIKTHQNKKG
ZFP SBS#909 (synthetic), sequence (chain, as listed by the source): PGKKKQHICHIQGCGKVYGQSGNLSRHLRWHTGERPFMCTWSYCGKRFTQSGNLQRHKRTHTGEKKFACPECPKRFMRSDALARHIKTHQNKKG
ZFP SBS#904 (synthetic), sequence (chain, as listed by the source): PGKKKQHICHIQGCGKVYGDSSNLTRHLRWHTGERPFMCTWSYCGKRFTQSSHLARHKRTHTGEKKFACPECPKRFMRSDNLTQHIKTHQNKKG
ZFP SBS#923 (synthetic), sequence (chain, as listed by the source): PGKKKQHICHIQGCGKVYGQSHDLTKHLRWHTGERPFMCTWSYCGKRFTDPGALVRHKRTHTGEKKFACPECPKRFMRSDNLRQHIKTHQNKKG
ZFP SBS#786 (synthetic), sequence (chain, as listed by the source): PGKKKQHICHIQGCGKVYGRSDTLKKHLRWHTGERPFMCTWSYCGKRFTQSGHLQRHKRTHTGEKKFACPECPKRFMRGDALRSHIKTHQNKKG
ZFP SBS#727, sequence (P08047 other isoform, or with tags, fused parts or gaps): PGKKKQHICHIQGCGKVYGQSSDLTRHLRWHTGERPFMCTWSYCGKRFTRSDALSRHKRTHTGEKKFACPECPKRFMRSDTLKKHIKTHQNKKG

B1: CGGGGAGCAG (dsDNA)
DNA 1: CGGGGAGCAG
DNA 2: CTGCTCCCCG
In general, Kd refers to the constant that tells how readily two partners part at equilibrium. Read a low Kd as tighter binding. Regarding B1, the Kd with ZFP SBS#779 and with ZFP SBS#780 was 0.5 nM each time.

B2: GCGGGGTCC (dsDNA)
DNA 1: GCGGGGTCC
DNA 2: GGACCCCGC
In the series with ZFP SBS#256, B2 yielded a Kd of 800 nM.

B3: TCAGAGGTG (dsDNA)
DNA 1: TCAGAGGTG
DNA 2: CACCTCTGA
Molecule B3 gave a Kd with ZFP SBS#912 of 0.135 nM.

B4: GACGACGGC (dsDNA)
DNA 1: GACGACGGC
DNA 2: GCCGTCGTC
For B4, the affinity in the series with ZFP SBS#431, expressed as Kd, was 100 nM.

B5: AAGGTCTCA (dsDNA)
DNA 1: AAGGTCTCA
DNA 2: TGAGACCTT
For the molecule B5, the Kd with ZFP SBS#923 is 2 nM; with ZFP SBS#922, 4 nM; with ZFP SBS#921, 11 nM; with ZFP SBS#908 it was 50 nM.

B6: AAGGGTGAC (dsDNA)
DNA 1: AAGGGTGAC
DNA 2: GTCACCCTT
The molecule B6 yielded a Kd with ZFP SBS#904 of 1 nM.

B7: GATGTGGTA (dsDNA)
DNA 1: GATGTGGTA
DNA 2: TACCACATC
As for B7, the Kd with ZFP SBS#920 came out at 4 nM.

B8: GAGGAAGGA (dsDNA)
DNA 1: GAGGAAGGA
DNA 2: TCCTTCCTC
Regarding B8, in the series with ZFP SBS#916, the Kd worked out at 1.3 nM.

B9: TTGGACGGCG (dsDNA)
DNA 1: TTGGACGGCG
DNA 2: CGCCGTCCAA
Take B9: the Kd with ZFP SBS#748 was found to be 112 nM; with ZFP SBS#760, 148 nM; with ZFP SBS#749, 11.3 nM; in the series with ZFP SBS#759, 37 nM.

B10: GCGGTGGCTC (dsDNA)
DNA 1: GCGGTGGCTC
DNA 2: GAGCCACCGC
Regarding B10, the Kd was determined as 6 nM with ZFP SBS#761, 0.1 nM with ZFP SBS#727, 0.05 nM in the series with ZFP SBS#735 and 18 nM in the series with ZFP SBS#762.

B11: GTGGAAGAA (dsDNA)
DNA 1: GTGGAAGAA
DNA 2: TTCTTCCAC
The molecule B11 showed a Kd in the series with ZFP SBS#909 of 16.4 nM.

B12: AGGGAGGATG (dsDNA)
DNA 1: AGGGAGGATG
DNA 2: CATCCTCCCT
B12 gave a Kd in the series with ZFP SBS#787 of 4 nM.

B13: ATGGACGGGT (dsDNA)
DNA 1: ATGGACGGGT
DNA 2: ACCCGTCCAT
With B13, the equilibrium dissociation constant (Kd) with ZFP SBS#776 turned out to be 0.4 nM; in the series with ZFP SBS#777, 3.4 nM.

B14: GTGGTGGTG (dsDNA)
DNA 1: GTGGTGGTG
DNA 2: CACCACCAC
With B14, the Kd was 1.15 nM in the series with ZFP SBS#905 and 7.5 nM with ZFP SBS#926.

B15: CAGGAAAAG (dsDNA)
DNA 1: CAGGAAAAG
DNA 2: CTTTTCCTG
Regarding B15, the Kd with ZFP SBS#914 amounted to 1.26 nM; with ZFP SBS#915, 45.1 nM.

B16: GAGGGAGCGA (dsDNA)
DNA 1: GAGGGAGCGA
DNA 2: TCGCTCCCTC
On to B16, for which the Kd came to 1.2 nM with ZFP SBS#827, 2.75 nM with ZFP SBS#826 and 52 nM with ZFP SBS#750.

B17: GGGGAGCAGC (dsDNA)
DNA 1: GGGGAGCAGC
DNA 2: GCTGCTCCCC
B17 displayed a Kd with ZFP SBS#781 of 4.25 nM.

B18: TTGGGAGCGG (dsDNA)
DNA 1: TTGGGAGCGG
DNA 2: CCGCTCCCAA
B18: the equilibrium dissociation constant (Kd) with ZFP SBS#783 came out at 2000 nM; with ZFP SBS#786, 2000 nM; with ZFP SBS#785, 50 nM.
